# According to paper PMC2756588:
# T1: Bbc1, P47068
# T1 sequence (P47068 1-78, looked up): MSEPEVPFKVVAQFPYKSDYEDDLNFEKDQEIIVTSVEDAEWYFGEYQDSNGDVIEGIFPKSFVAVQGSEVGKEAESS
# T2: Boi2, P39969
# T2 sequence (P39969 32-116, looked up): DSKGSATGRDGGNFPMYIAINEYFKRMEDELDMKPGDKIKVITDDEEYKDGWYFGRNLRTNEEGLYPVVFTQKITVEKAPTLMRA
# T3: Hof1, Q05080
# T3 sequence (Q05080 590-669, looked up): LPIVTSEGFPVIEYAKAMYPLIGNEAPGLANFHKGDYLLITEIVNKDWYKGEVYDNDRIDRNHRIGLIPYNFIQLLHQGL
# T4: Nbp2, Q12163
# T4 sequence (Q12163 103-180, looked up): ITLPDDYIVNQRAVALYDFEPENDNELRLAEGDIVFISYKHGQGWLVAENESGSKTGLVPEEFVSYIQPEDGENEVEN
# T5: Pin3, Q06449
# T5 sequence (Q06449 53-122, looked up): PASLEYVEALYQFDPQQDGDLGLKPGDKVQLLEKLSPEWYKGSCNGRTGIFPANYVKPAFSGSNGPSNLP
# T6: Boi1, P38041
# T6 sequence (P38041 1-86, looked up): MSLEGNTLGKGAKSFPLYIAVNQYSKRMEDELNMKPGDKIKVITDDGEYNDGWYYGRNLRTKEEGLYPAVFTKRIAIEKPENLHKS
# T7: Lsb1, P53281
# T7 sequence (P53281 45-122, looked up): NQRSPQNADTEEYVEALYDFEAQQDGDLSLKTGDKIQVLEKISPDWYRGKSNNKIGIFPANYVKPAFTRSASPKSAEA
# T8: Lsb3, P43603
# T8 sequence (P43603 385-451, looked up): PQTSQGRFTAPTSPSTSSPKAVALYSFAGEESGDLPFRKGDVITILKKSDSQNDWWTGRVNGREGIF
# T9: Abp1, P15891
# T9 sequence (P15891 535-592, looked up): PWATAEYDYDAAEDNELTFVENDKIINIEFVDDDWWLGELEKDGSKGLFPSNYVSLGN
# T10: Bzz1-2, P38822
# T10 sequence (P38822 568-633, looked up): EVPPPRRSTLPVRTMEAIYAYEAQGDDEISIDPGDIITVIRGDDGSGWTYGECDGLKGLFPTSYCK
# T11: Pex13, P80667
# T11 sequence (P80667 295-386, looked up): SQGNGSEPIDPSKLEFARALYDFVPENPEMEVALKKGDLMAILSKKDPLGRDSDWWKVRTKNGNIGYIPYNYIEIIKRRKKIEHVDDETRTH
# T12: Sla1-3, P32790
# T12 sequence (P32790 344-424, looked up): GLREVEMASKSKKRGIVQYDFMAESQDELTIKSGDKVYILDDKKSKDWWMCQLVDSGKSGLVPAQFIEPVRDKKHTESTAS
# T13: Bzz1-1, P38822
# T13 sequence (P38822 478-572, looked up): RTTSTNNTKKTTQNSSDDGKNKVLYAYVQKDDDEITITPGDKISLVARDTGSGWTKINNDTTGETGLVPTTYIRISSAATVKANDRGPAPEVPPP
# T14: Cdc25, P04821
# T14 sequence (P04821 50-136, looked up): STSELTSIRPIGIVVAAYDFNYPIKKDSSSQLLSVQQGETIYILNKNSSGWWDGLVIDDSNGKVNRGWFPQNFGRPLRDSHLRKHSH
# T15: Hse1, P38753
# T15 sequence (P38753 208-285, looked up): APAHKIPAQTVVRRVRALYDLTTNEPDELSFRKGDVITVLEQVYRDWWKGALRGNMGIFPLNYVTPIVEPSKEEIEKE
# T16: Bud14, P27637
# T16 sequence (P27637 247-328, looked up): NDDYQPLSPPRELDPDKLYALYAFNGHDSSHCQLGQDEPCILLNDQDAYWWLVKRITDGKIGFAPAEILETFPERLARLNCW
# T17: Lsb4, P32793
# T17 sequence (P32793 402-468, looked up): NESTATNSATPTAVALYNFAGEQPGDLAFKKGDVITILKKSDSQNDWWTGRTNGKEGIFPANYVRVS
# T18: Sla1-2, P32790
# T18 sequence (P32790 60-140, looked up): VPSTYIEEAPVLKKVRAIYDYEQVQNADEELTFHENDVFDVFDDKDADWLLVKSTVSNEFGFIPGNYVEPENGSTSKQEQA
# T19: Myo5, Q04439
# T19 sequence (Q04439 1072-1160, looked up): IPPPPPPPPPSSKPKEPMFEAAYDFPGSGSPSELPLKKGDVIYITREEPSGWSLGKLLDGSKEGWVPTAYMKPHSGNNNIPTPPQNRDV
# T20: Fus1, P11710
# T20 sequence (P11710 432-512, looked up): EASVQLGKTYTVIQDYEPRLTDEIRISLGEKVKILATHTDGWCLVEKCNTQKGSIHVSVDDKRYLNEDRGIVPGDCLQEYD
# T21: Cyk3, Q07533
# T21 sequence (Q07533 1-83, looked up): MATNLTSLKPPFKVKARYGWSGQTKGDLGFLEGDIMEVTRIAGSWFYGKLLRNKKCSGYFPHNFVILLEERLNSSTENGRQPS
# How the values were obtained:
# Test in all cases: SPOT array
# Bem1-1, P29366 = details: median of control spots 4282
# Bbc1, P47068 = target: T1, Bbc1, P47068; details: median of control spots 796
# Boi2, P39969 = target: T2, Boi2, P39969; details: median of control spots 1161
# Hof1, Q05080 = target: T3, Hof1, Q05080; details: median of control spots 4086
# Nbp2, Q12163 = target: T4, Nbp2, Q12163; details: median of control spots 357
# Pin3, Q06449 = target: T5, Pin3, Q06449; details: median of control spots 2171
# Sho1, P40073 = details: median of control spots 1148
# Rvs167, P39743 = details: median of control spots 2707
# Boi1, P38041 = target: T6, Boi1, P38041; details: median of control spots 1162
# Lsb1, P53281 = target: T7, Lsb1, P53281; details: median of control spots 388
# GST = details: median of control spots 978
# Lsb3, P43603 = target: T8, Lsb3, P43603; details: median of control spots 406
# Abp1, P15891 = target: T9, Abp1, P15891; details: median of control spots 935
# Bzz1-2, P38822 = target: T10, Bzz1-2, P38822; details: median of control spots 4538
# Pex13, P80667 = target: T11, Pex13, P80667; details: median of control spots 1341
# Sla1-3, P32790 = target: T12, Sla1-3, P32790; details: median of control spots 5475
# Myo3, P36006 = details: median of control spots 468
# Bzz1-1, P38822 = target: T13, Bzz1-1, P38822; details: median of control spots 4446
# Cdc25, P04821 = target: T14, Cdc25, P04821; details: median of control spots 969
# Hse1, P38753 = target: T15, Hse1, P38753; details: median of control spots 1727
# Bud14, P27637 = target: T16, Bud14, P27637; details: median of control spots 956
# Bem1-2, P29366 = details: median of control spots 4347
# Lsb4, P32793 = target: T17, Lsb4, P32793; details: median of control spots 397
# Sla1-2, P32790 = target: T18, Sla1-2, P32790; details: median of control spots 712
# Myo5, Q04439 = target: T19, Myo5, Q04439; details: median of control spots 471
# Fus1, P11710 = target: T20, Fus1, P11710; details: median of control spots 1200
# Cyk3, Q07533 = target: T21, Cyk3, Q07533; details: median of control spots 1451
# Sho1, P40073, sequence (P40073 287-367): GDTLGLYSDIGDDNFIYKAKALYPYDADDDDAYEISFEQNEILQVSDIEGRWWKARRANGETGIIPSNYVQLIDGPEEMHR
# Bem1-2, P29366, sequence (P29366 139-227): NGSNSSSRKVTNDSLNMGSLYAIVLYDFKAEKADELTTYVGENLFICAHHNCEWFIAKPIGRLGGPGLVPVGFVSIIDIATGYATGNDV
# Rvs167, P39743, sequence (P39743 419-482): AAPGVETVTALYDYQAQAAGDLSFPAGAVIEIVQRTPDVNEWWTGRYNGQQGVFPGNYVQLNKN
# Bem1-1, P29366, sequence (P29366 55-141): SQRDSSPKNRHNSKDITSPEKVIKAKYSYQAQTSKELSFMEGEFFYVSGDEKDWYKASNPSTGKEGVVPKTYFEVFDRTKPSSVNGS
Binder,"SPOT intensity (Bem1-1, P29366)","SPOT intensity (Bbc1, P47068)","SPOT intensity (Boi2, P39969)","SPOT intensity (Hof1, Q05080)","SPOT intensity (Nbp2, Q12163)","SPOT intensity (Pin3, Q06449)","SPOT intensity (Sho1, P40073)","SPOT intensity (Rvs167, P39743)","SPOT intensity (Boi1, P38041)","SPOT intensity (Lsb1, P53281)",SPOT intensity (GST),"SPOT intensity (Lsb3, P43603)","SPOT intensity (Abp1, P15891)","SPOT intensity (Bzz1-2, P38822)","SPOT intensity (Pex13, P80667)","SPOT intensity (Sla1-3, P32790)","SPOT intensity (Myo3, P36006)","SPOT intensity (Bzz1-1, P38822)","SPOT intensity (Cdc25, P04821)","SPOT intensity (Hse1, P38753)",further results
RRTRLRPPTPLSQLL,2,348,0,5,11,9,39,0,0,215,5,2,103,0,4,35,6,2,24,17,"SPOT intensity (Bud14, P27637): 24; SPOT intensity (Bem1-2, P29366): 15; SPOT intensity (Lsb4, P32793): 1; SPOT intensity (Sla1-2, P32790): 0; SPOT intensity (Myo5, Q04439): 0; SPOT intensity (Fus1, P11710): 17; SPOT intensity (Cyk3, Q07533): 7"
FHLNPKRSAVLYDRP,245,10,0,83,0,32,35,7,0,0,5,0,24,38,35,140,0,3,25,40,"SPOT intensity (Bud14, P27637): 9; SPOT intensity (Bem1-2, P29366): 308; SPOT intensity (Lsb4, P32793): 0; SPOT intensity (Sla1-2, P32790): 0; SPOT intensity (Myo5, Q04439): 1; SPOT intensity (Fus1, P11710): 309; SPOT intensity (Cyk3, Q07533): 0"
SNRRPVPRRPSQPLN,1,248,1,18,46,12,31,3400,2,576,0,183,139,60,129,459,3,0,35,9,"SPOT intensity (Bud14, P27637): 16; SPOT intensity (Bem1-2, P29366): 29; SPOT intensity (Lsb4, P32793): 333; SPOT intensity (Sla1-2, P32790): 0; SPOT intensity (Myo5, Q04439): 0; SPOT intensity (Fus1, P11710): 0; SPOT intensity (Cyk3, Q07533): 0"

# More lines, main results first:
"SPOT intensity (Bem1-1, P29366)","SPOT intensity (Bbc1, P47068)","SPOT intensity (Boi2, P39969)","SPOT intensity (Hof1, Q05080)","SPOT intensity (Nbp2, Q12163)","SPOT intensity (Pin3, Q06449)","SPOT intensity (Sho1, P40073)","SPOT intensity (Rvs167, P39743)","SPOT intensity (Boi1, P38041)","SPOT intensity (Lsb1, P53281)",SPOT intensity (GST),"SPOT intensity (Lsb3, P43603)","SPOT intensity (Abp1, P15891)","SPOT intensity (Bzz1-2, P38822)","SPOT intensity (Pex13, P80667)","SPOT intensity (Sla1-3, P32790)","SPOT intensity (Myo3, P36006)","SPOT intensity (Bzz1-1, P38822)","SPOT intensity (Cdc25, P04821)","SPOT intensity (Hse1, P38753)",Binder,further results
1,36,0,9,14,15,41,0,0,53,0,0,36,7,13,97,0,0,142,32,RFKRHRLEFPFNESE,"SPOT intensity (Bud14, P27637): 4; SPOT intensity (Bem1-2, P29366): 4; SPOT intensity (Lsb4, P32793): 0; SPOT intensity (Sla1-2, P32790): 0; SPOT intensity (Myo5, Q04439): 0; SPOT intensity (Fus1, P11710): 34; SPOT intensity (Cyk3, Q07533): 0"
0,0,1,0,0,4,10,0,1,0,0,0,0,0,14,0,0,1,66,0,SKSRLLIELPEGFFT,"SPOT intensity (Bud14, P27637): 1; SPOT intensity (Bem1-2, P29366): 0; SPOT intensity (Lsb4, P32793): 0; SPOT intensity (Sla1-2, P32790): 0; SPOT intensity (Myo5, Q04439): 0; SPOT intensity (Fus1, P11710): 0; SPOT intensity (Cyk3, Q07533): 0"
0,67,4,0,10,0,51,0,14,0,0,6,37,0,19,0,7,0,132,0,GKKVRPLLVLLLSRA,"SPOT intensity (Bud14, P27637): 9; SPOT intensity (Bem1-2, P29366): 0; SPOT intensity (Lsb4, P32793): 2; SPOT intensity (Sla1-2, P32790): 0; SPOT intensity (Myo5, Q04439): 1; SPOT intensity (Fus1, P11710): 4; SPOT intensity (Cyk3, Q07533): 0"
